Laboratory results taken from patent US20250361322A1.
Each block holds one substance with its values, some of them ahead of it.

How the values were obtained:
[1] = target: r141-194_h (rat/human chimera) (UniProt P42533); experiment: live cell staining, flow cytometry, transfected HEK293
[2] = target: hTF_K149N (human) (UniProt P13726); experiment: as above
[3] = target: h1-107_r (human/rat chimera); experiment: as above
[4] = target: h108-219_r (human/rat chimera); experiment: live cell staining (HEK293, flow cytometry)
[5] = target: r141-194_h (rat/human chimera) (UniProt P42533); experiment: live cell staining (HEK293, flow cytometry)
[6] = target: h159-174_r (human/rat chimera) (UniProt P13726); experiment: live cell staining (HEK293, flow cytometry)
[7] = target: h1-107_r (human/rat chimera); experiment: live cell staining (HEK293, flow cytometry)
[8] = target: h167-174_r (human/rat chimera) (UniProt P13726); experiment: live cell staining (HEK293, flow cytometry)
[9] = target: h159-189_r (human/rat chimera) (UniProt P13726); experiment: live cell staining (HEK293, flow cytometry)
[10] = target: h159-219_r (human/rat chimera); experiment: live cell staining (HEK293, flow cytometry)
[11] = target: human Tissue Factor (TF) (human) (UniProt P13726); experiment: cell-based or functional assay
[12] = target: full-length mouse TF with a C-terminal FLAG tag on Flp-In-CHO cells (mouse) (UniProt P20352); experiment: flow cytometry on CHO cells expressing mouse TF, MFI at 250 nM antibody

h1-107_r (human/rat chimera), sequence (chain, as listed by the source mutant limits assumed): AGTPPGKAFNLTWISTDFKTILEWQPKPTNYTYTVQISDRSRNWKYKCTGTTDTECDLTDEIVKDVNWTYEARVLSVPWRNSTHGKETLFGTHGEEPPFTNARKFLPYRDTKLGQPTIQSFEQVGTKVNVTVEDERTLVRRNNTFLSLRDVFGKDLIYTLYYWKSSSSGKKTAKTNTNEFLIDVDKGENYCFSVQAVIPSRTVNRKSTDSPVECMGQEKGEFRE
h108-219_r (human/rat chimera), sequence (chain, as listed by the source mutant limits assumed): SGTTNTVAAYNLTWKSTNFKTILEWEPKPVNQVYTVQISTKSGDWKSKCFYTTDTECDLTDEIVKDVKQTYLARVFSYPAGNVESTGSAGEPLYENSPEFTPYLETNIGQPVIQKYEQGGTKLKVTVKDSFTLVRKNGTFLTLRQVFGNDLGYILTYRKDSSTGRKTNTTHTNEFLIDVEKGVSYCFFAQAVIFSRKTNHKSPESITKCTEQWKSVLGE

percent antibody binding to TF construct relative to hTF [1]: 32%
percent antibody binding to TF construct relative to hTF [2]: 145%
percent antibody binding to TF construct relative to hTF [3]: 41%
Percentage antibody binding to TF construct relative to hTF [4]: < 50%
Percentage antibody binding to TF construct relative to hTF [5]: < 50%
Percentage antibody binding to TF construct relative to hTF [6]: < 50%
Percentage antibody binding to TF construct relative to hTF [7]: < 50%
Percentage antibody binding to TF construct relative to hTF [8]: < 50%
Percentage antibody binding to TF construct relative to hTF [9]: < 50%
Percentage antibody binding to TF construct relative to hTF [10]: < 50%
Substance: 5G9 (humanized TF8-5G9, CNTO 860) (antibody)

% GM-CSF at 2.56 nM [11]: 88%
% GM-CSF at 6.4 nM [11]: 86%
% GM-CSF at 100 nM [11]: 105%
% IL8 at 2.56 nM [11]: 90%
% IL8 at 6.4 nM [11]: 88%
% IL8 at 16 nM [11]: 84%
Substance: Control

MFI at 250 nM [12]: 7400
Substance: IgG1 isotype control (antibody)
